Measured values published in US20240009242A1 (STARKAGE THERAPEUTICS, published 2024).
Ends that are not written are not given here.

T1: hDEP1 Peptide #1 (human, also: conjugated to BSA)
T1 peptide: AGGTPSPIPDPSV

T2: hDEP1 Peptide #2 (human, also: conjugated to BSA)
T2 peptide: PVLGDIEGTPGFLQVHT

T3: hDEP1 Peptide #3 (human, also: conjugated to BSA)
T3 peptide: EVVPKEPALVLKWT

T4: hDEP1-ECD-His (human, UniProt Q12913 621-969)
T4 construct: Produced in CHO cells, purified on Ni-NTA; also called recombinant protein hDEP1-ECD-His
T4 sequence: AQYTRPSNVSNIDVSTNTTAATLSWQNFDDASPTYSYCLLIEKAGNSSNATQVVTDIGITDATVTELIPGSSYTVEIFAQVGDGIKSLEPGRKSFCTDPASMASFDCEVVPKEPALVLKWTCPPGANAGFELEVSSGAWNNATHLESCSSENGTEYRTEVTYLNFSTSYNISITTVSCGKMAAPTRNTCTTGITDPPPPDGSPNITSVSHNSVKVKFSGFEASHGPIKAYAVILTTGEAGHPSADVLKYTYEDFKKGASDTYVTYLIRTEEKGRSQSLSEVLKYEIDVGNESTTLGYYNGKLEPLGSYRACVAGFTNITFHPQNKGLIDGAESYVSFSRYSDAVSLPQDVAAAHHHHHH

T5: murine counterpart of hDEP1-ECD-His (murine, UniProt Q64455 524-870)
T5 construct: also called mDEP1
T5 sequence: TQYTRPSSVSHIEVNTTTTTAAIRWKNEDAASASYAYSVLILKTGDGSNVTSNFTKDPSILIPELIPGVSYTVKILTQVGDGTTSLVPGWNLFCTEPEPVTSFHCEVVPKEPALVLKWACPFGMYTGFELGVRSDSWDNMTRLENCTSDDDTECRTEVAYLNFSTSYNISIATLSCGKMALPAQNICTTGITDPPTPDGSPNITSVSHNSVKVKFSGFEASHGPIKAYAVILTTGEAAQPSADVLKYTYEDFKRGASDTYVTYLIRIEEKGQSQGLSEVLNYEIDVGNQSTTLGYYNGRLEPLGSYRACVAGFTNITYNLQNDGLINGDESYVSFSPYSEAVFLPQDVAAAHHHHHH

T6: hDEP1 Peptide #4 (human, also: conjugated to BSA)
T6 construct: also called hDEP1 Peptide #4/BSA
T6 peptide: ADVLKYTYEDFKKGASDT


Assays:
hDEP1 Peptide #1 = biological target: T1, hDEP1 Peptide #1; assay: indirect ELISA, purified soluble scFv
hDEP1 Peptide #2 = biological target: T2, hDEP1 Peptide #2; assay: indirect ELISA, purified soluble scFv
hDEP1 Peptide #3 = biological target: T3, hDEP1 Peptide #3; assay: indirect ELISA, purified soluble scFv
hDEP1-ECD-His = biological target: T4, hDEP1-ECD-His; assay: indirect ELISA, purified soluble scFv
[1] = biological target: T5, murine counterpart of hDEP1-ECD-His; assay: indirect ELISA, purified soluble scFv
BSA = biological target: T7, BSA (UniProt P02769 25-607); assay: indirect ELISA, purified soluble scFv
T7 construct: Negative control antigen in the ELISAs; also called negative control (BSA only)
T7 sequence (P02769 25-607 limits assumed): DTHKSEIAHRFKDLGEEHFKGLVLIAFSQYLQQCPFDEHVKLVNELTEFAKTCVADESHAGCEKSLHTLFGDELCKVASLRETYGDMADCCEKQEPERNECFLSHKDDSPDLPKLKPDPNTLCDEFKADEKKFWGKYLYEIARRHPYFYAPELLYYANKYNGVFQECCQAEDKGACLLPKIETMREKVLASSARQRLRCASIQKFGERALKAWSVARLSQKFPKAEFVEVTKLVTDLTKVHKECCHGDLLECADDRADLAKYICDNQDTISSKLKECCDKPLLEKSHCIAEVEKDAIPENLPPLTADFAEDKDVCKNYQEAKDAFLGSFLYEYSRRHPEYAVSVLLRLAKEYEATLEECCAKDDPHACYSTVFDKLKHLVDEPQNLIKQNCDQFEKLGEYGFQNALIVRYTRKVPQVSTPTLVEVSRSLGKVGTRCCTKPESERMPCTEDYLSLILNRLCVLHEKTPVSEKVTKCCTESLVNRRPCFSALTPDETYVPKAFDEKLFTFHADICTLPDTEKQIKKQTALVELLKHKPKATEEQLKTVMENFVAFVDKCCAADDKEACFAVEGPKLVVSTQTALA

hDEP1 Peptide #4 [2] = biological target: T6, hDEP1 Peptide #4; assay: ELISA, soluble scFv produced in microtiter plate
Method: 96 isolated clones from the second, third and fourth rounds of panning were hand-picked and used to produce the respective soluble scFv in microtiter plate. Each clone was then tested in ELISA against hDEP1 Peptide #4/BSA.

hDEP1 Peptide #4 [3] = biological target: T6, hDEP1 Peptide #4; assay: indirect ELISA, purified soluble scFv

Row | binding result (hDEP1 Peptide #1) | binding result (hDEP1 Peptide #2) | binding result (hDEP1 Peptide #3) | binding result (hDEP1-ECD-His) | binding result [1] | binding result (BSA) | binding result (hDEP1 Peptide #4 [2]) | binding result (hDEP1 Peptide #4 [3]) | Binder
1 | no binding | no binding | no binding | binds | no binding | no binding | binds |  | 5738-10-R4A-G12 (scFv, V domains shown, anti-hDEP1 scFv, rat 10 library, format VH/VL-6xHis-Flag) VH: QVQLKESGAELAKPGSSVKISCKASGYTFTSDSISWIKQTTGQGLEYIGYIHPGSGVTNYNEKFKGKATLTVDKSSSTAFMQLSSLTPDDSAIYYCARYFDYWGQGVMVTVSS VL: DILMTQSPSSMSVSLGDTVTITCRASQDVGIYVNWFQQKPGKSPRRMIYRATNLADGVPSRFSGSRSGSDYSLTISSLESEDVADYHCLQYDEYPPTFGGGTKLELK
2 | no binding | no binding | no binding |  | no binding | no binding |  | no binding | 5738-13-R4A-D11 (scFv, V domains shown, anti-hDEP1 scFv, rat 13 library, format VH/VL-6xHis-Flag) VH: QVQLKESGGGLVQPGRSLKLSCAASGFSFGDYNMAWVRQAPKKGLEWVATISYDDYRTYYRDSVKGRFTISRDDAKATLYLQMDSLRSEDTATYYCARQGGIIRGVWFPYWGQGTLVTVSS VL: DIQMTQTPASLSASLEEIVTITCQASQDIGNWLAWYQQKPGKSPHLLIYGATTLADGVPSRFSGSRSGTQYSLKISRLQAEDIGIYYCQQASSAPWTFGGGTKLELK
